In patent US20150299252A1:
Where no end group is shown, it is not given here.

T1: lectin MAA from Maackia amurensis (Maackia amurensis), P0DKL3
T1 chain: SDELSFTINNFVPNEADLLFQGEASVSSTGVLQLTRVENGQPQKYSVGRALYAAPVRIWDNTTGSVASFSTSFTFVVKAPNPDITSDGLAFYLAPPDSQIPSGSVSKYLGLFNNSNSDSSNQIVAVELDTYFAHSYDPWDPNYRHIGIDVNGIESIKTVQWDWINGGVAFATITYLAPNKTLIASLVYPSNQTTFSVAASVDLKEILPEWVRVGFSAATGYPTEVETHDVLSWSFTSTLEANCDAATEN


Assays:
[1] = target: lectin SNA1 from Sambucus nigra (Sambucus nigra) (UniProt Q41358)
[2] = target: lectin MAA from Maackia amurensis (Maackia amurensis) (UniProt P0DKL3); test: solid-phase competition; fetuin against SVH1C for MAA
[3] = target: lectin MAA from Maackia amurensis (Maackia amurensis) (UniProt P0DKL3); test: solid-phase competition; fetuin against 100 pmoles of SVH1C on streptavidin for peroxidase-conjugated MAA
[4] = target: T1, lectin MAA from Maackia amurensis …; test: solid-phase assay, peptide titrated into wells containing bound lectin
[5] = target: lectin SNA1 from Sambucus nigra (Sambucus nigra), Q41358; test: as above
lectin SNA1 from Sambucus nigra (Sambucus nigra), Q41358, sequence (Q41358 29-289 limits assumed, chain 1 of 2): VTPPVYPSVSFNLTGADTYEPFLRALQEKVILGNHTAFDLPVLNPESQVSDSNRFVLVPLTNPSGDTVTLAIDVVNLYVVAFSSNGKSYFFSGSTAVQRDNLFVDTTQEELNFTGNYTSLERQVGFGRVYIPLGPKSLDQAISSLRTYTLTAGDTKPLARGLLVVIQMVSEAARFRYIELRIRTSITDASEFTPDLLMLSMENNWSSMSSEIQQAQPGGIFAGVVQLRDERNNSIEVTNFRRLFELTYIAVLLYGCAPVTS
lectin SNA1 from Sambucus nigra (Sambucus nigra), Q41358, sequence (Q41358 309-570 limits assumed, chain 2 of 2): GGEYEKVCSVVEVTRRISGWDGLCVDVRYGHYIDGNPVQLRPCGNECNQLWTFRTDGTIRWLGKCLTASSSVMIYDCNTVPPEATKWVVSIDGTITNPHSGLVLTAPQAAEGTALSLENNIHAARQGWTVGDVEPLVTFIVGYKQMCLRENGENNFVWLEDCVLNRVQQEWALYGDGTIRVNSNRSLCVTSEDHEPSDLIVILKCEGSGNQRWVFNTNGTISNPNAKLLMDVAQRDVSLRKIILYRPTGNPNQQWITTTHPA

fetuin, sequence (P12763 19-359 limits assumed): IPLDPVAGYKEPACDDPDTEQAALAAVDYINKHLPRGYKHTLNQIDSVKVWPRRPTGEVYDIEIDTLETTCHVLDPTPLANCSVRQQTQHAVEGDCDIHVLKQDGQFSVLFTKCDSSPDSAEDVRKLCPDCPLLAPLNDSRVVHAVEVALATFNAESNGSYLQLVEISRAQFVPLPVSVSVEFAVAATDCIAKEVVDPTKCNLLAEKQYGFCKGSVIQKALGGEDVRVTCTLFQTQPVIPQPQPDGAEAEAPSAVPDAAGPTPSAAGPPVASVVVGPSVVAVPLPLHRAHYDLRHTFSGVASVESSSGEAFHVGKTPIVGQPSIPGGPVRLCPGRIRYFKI
lectin SNA1 from Sambucus nigra (Sambucus nigra), sequence (Q41358 29-289 limits assumed, chain 1 of 2): as the sequence (Q41358 29-289 limits assumed, chain 1 of 2) above
lectin SNA1 from Sambucus nigra (Sambucus nigra), sequence (Q41358 309-570 limits assumed, chain 2 of 2): as the sequence (Q41358 309-570 limits assumed, chain 2 of 2) above

Row | Molecule | amount of fetuin giving essentially complete inhibition (pmoles of fetuin per well) [1] | percent inhibition at 100 pmoles fetuin per well [1] | percent inhibition at a 5-fold molar excess of fetuin over peptide [2] | amount of fetuin giving essentially complete inhibition (pmoles of fetuin per well) [3] | percent inhibition at 100 pmoles fetuin per well [3] | amount of peptide at saturation [4] | amount of peptide at saturation [5]
1 | fetuin (from UniProt P12763 19-359) | 500 | 50% | 90% | 500 | 50% | – | –
2 | biotinylated SVH1C (quadravalent, C-terminal ε-biotinyl-lysine amide) (modifications not checked) peptide: NPSHPLSGGGGS KKKK | – | – | – | – | – | 100 pmol | 100 pmol
